Data taken from patent US20140127211A1.

What was measured:
[1] = molecular target: Notch 1-3 NRR domain swap chimera: B of Notch1; A, C, hd1, hd2 of Notch3 (row 5, unnamed on the sheet) (human); assay: ELISA: NRR-Fc protein coated at 1 ug/ml, antibody applied at 5 ug/ml, goat anti-human Fc-HRP, TMB, O.D. 450 nM
[2] = molecular target: Notch 1-3 NRR domain swap chimera: C of Notch1; A, B, hd1, hd2 of Notch3 (row 6, unnamed on the sheet) (human); assay: as above

O.D. 450 nM (ELISA, relative binding capacity) [1]: 2.37
O.D. 450 nM (ELISA, relative binding capacity) [2]: 0.8
B1: rat-human chimeric antibody 75 (ch75) (antibody, V domains shown)
VH: QVKLLQSGAALVKPGASVKMSCKASGYAFTDYWVTWVKQSHGKSLEWIGEISPNSGGTNFNEKFKGKATLTVDKSTSTAYMELSRLTSEDSAIYYCTRGEIRYNWFAYWGQGTLVTVSS
VL: NIVMTQSPKSMSISVGDRVTMNCKASQNVGNNIAWYQQKPGQSPKLLIYYASNRYTGVPDRFTGGGYGTDFTLTINSMQAEDAAFYYCQRLYNSPFTFGSGTKLEIK
